This note sets out measurements from patent US20160168247A1 (published 2016).

In test [1] the target is T1, HSC-F (cynomolgus monkey, UniProt Q95LI8 22-171; Q95LI7 23-181).
T1 chain: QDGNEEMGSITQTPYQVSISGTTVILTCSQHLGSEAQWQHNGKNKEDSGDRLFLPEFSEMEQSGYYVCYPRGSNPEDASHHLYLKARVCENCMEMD
Put plainly: FACS binding; Fig 2B.

Test [2] addresses T1, HSC-F. Put plainly: FACS binding; Fig 2A.
The target in test [3] is T1, HSC-F. Kind of test: FACS binding.
For test [4], the target named is T2, human CD3 (on the human T-cell line Jurkat or on human T-cells) (human, UniProt P09693 23-182; P20963 22-164). Put plainly: FACS binding.
T2 sequence (chain, as listed by the source, chain 1 of 4): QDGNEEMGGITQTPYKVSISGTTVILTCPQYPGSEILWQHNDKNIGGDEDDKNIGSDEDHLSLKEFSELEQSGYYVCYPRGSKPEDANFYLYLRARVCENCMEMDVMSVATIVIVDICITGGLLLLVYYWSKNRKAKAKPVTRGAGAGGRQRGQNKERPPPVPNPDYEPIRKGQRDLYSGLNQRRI
T2 sequence (chain, as listed by the source, chain 2 of 4): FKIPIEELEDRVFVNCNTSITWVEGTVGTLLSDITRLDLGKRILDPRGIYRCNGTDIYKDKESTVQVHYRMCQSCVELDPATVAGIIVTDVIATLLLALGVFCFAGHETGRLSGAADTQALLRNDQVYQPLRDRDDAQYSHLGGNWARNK
T2 sequence (P09693 23-182, chain 3 of 4): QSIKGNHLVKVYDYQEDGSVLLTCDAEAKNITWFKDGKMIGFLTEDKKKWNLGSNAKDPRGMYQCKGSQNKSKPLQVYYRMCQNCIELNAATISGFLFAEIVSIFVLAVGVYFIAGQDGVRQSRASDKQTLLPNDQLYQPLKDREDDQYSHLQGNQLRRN
T2 sequence (P20963 22-164, chain 4 of 4): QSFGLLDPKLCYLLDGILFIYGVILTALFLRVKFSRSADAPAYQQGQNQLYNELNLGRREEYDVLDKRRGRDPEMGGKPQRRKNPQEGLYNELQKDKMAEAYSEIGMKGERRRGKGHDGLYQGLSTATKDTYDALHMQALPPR
In test [5] the target is T2, human CD3 (on the human T-cell line …). Put plainly: FACS binding; Fig 1B.
For test [6] the target is unchanged. Put plainly: FACS binding; Fig 1A.
Test [7] deals with T1, HSC-F. Kind of test: FACS binding; second row printed H4L1; graph legend indicates H4L3.
Test [8] addresses T1, HSC-F. Kind of test: FACS binding.

Substitutions are numbered along the chain they refer to.

B1: bsIgG1 CD3xHER2-LFLEDA (bispecific antibody, V domains shown)
VH 1: EVKLLESGGGLVQPKGSLKLSCAASGFTFNTYAMNWVRQAPGKGLEWVARIRSKYNNYATYYADSVKDRFTISRDDSQSILYLQMNNLKTEDTAMYYCVRHGNFGNSYVSWFAYWGQGTLVTVSA
VL 1: QAVVTQESALTTSPGETVTLTCRSSTGAVTTSNYANWVQEKPDHLFTGLIGGTNKRAPGVPARFSGSLIGDKAALTITGAQTEDEAIYFCALWYSNLWVFGGGTKLTVL
VH 2: QVQLVQSGAEVKKPGASVKVSCKASGYTFTNYGISWVRQAPGQGLEWMGWLSAYSGNTIYAQKLQGRVTMTTDTSTTTAYMELRSLRSDDTAVYYCARDRIVVRPDYFDYWGQGTLVTVSS
VL 2: EIVLTQSPATLSLSPGERATLSCRASQSVSSYLAWYQQKPGQAPRLLIYDASNRATGIPARFSGSGSGTDFTLTISSLEPEDFAVYYCQQRSNWPRTFGQGTKVEIK
B1: the EC50 in the test with HSC-F [1] came to 4.46 µg/mL.

B2: IgG1-huCD3-H3L1-LFLEDA (antibody, V domains shown)
VH: B1 VH 1 with L5V, Q13K, K15G, G16R, K19R, Q78K, N87S, A125S
VL: not shown
For B2, the EC50 with HSC-F [2] came out at 0.19 µg/mL; with HSC-F [3], 0.04 µg/mL; in the test with HSC-F [1], 0.3 µg/mL; in test [4] it was 0.1 µg/mL; in test [5], 0.04 µg/mL; in test [6], 0.04 µg/mL.

B3: bsIgG1-huCD3-H4L1xHER2-LFLEDA (bispecific antibody, V domains shown)
VH 1: B1 VH 1 with L5V, Q13K, K15G, G16R, K19R, Q78K, N87S, L120M, A125S
VL 1: QAVVTQEPSFSVSPGGTVTLTCRSSTGAVTTSNYANWVQQTPGQAFRGLIGGTNKRAPGVPARFSGSILGNKAALTITGAQADDESDYYCALWYSNLWVFGGGTKLTVL
VH 2: B1 VH 2
VL 2: B1 VL 2
As for B3, the EC50 with HSC-F [7] was 0.24 µg/mL.

B4: bsIgG1 huCD3-H3L1xHER2-LFLEDA (bispecific antibody, V domains shown)
VH 1: B1 VH 1 with L5V, Q13K, K15G, G16R, K19R, Q78K, N87S, A125S
VL 1: not shown
VH 2: B1 VH 2
VL 2: B1 VL 2
Consider B4, for which the EC50 with HSC-F [1] is 3.54 µg/mL.

B5: IgG1-CD3-LFLEDA (antibody, V domains shown)
VH: B1 VH 1
VL: B1 VL 1
For the molecule B5, the EC50 was 0.3 µg/mL in the test with HSC-F [2], 0.06 µg/mL with HSC-F [3], 0.47 µg/mL with HSC-F [1] and 0.06 µg/mL with HSC-F [8].
